# Experimental data from US20250115669A1, “FGFR1/KLB Targeting Agonistic Antigen-Binding Proteins and Conjugates Thereof with GLP-1R Agonistic Peptides” (SANOFI, priority 2020, published 2025).
# Where two headings read alike, the source gives them in different places.
# Experiments:
# human beta-Klotho [1] = target: T1, human beta-Klotho (Homo sapiens, UniProt Q86Z14); assay: SPR analysis of the active fraction of stressed antibodies; format: binding; details: 21 days
# T1 sequence (Q86Z14 1-1044): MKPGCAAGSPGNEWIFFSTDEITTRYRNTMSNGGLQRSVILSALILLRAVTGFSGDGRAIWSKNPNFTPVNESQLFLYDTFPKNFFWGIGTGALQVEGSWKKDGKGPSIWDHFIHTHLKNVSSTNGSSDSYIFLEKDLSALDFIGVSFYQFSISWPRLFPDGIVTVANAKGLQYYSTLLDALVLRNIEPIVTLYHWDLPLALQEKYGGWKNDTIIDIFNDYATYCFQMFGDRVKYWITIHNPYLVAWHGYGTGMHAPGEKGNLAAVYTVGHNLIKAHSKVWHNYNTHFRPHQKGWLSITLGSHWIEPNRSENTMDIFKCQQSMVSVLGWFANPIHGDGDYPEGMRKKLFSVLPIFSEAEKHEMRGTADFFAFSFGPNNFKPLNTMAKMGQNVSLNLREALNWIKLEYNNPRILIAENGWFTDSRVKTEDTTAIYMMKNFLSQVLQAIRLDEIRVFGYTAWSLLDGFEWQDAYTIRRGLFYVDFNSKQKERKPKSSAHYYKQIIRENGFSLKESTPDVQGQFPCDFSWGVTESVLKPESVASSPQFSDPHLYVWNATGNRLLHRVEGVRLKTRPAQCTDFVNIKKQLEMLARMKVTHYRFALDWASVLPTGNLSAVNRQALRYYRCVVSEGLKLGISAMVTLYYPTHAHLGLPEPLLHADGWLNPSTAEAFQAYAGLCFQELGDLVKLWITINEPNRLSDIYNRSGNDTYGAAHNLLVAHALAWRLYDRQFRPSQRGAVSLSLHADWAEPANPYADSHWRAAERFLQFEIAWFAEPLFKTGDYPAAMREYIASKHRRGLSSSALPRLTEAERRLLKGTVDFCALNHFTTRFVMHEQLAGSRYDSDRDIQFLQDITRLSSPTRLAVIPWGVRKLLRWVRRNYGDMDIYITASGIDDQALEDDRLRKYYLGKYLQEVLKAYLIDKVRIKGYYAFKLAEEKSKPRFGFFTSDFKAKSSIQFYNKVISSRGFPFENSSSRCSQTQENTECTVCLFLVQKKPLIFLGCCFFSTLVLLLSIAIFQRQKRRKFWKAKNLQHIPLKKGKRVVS
# Method: Analysis of the active fraction of stressed antibodies was performed by SPR using the same Fc capture assay set up as described above for the affinity determination. In this case the association and dissociation times for human beta-Klotho were set to 240 sec and 300 sec, respectively. The active fraction of the samples was calculated as the ratio of binding signal for human beta-Klotho and the Fc capture signal of the antibody, normalized to the active fraction of the unstressed control samples. Mean values from three experiments were calculated.
# human beta-Klotho [2] = target: T1, human beta-Klotho; assay: SPR binding affinity and kinetics to human beta-Klotho (Biacore 8K, anti-human Fc capture)
# Method: (§1) Binding affinity and kinetics were measured on a Biacore 8K instrument (GE Healthcare). For the affinity capture of the diluted mAb sample, an anti-human Fc antibody (human antibody capture kit, GE Healthcare) was immobilized on all eight channels of a series S CM5 sensor chip (GE Healthcare) to approximately 10.000 RU. The anti-beta-Klotho antibodies were diluted into HBS-EP+ assay buffer (GE Healthcare) to 0.04 μg/mL. The antibodies were injected in the sample compartment, whereas the reference compartment was used without captured antibody. […] For the antigen inject the flow rate was adjusted to 60 μL/min with an association time of 180 sec and a dissociation time of 1800 sec. The maximum binding signal of beta-Klotho was in the range of 30 RU. At the end of each cycle an inject of regeneration solution, supplied with human antibody capture kit (GE Healthcare), supplemented with 10% non-specific binding reducer (GE Healthcare), for 1 min at 30 μL/min to remove antibody and antigen was performed. Binding kinetics data were evaluated with a 1:1 binding model using the Biacore 8K Evaluation Software version 1.1.1.7442 (GE Healthcare).
# (§2) For interaction analysis with human beta-klotho, mAbs were captured via an anti-human Fc antibody immobilized on a series S CM5 sensor chip (human antibody capture kit, GE Healthcare). […] Binding kinetics data were evaluated with a 1:1 binding model using the Biacore 8K Evaluation Software version 1.1.1.7442 (GE Healthcare). For interaction analysis with Cynomolgus monkey beta-klotho, mAbs were captured via an anti-human Fc antibody immobilized on a series S CM5 sensor chip (human antibody capture kit, GE Healthcare). […] Binding kinetics data were evaluated with a 1:1 binding model using the Biacore 8K Evaluation Software version 1.1.1.7442 (GE Healthcare). Exemplary sensorgrams for the interaction are shown in FIG. 7 (human KLB) and 8 (monkey KLB), as well as in Table G.
# [3] = Capillary isoelectric focusing (cIEF); format: physicochemical
# Method: Charge heterogeneity of the antibody samples was determined by capillary isoelectric focusing (cIEF) using a Maurice C device (Protein Simple). The samples were prepared by the cIEF protocol given by the manufacturer with an ampholyte mix 3-10 (Protein Simple) and peptide pl markers of 5.85 and 9.0 (Protein Simple). cIEF runs were analyzed using Compass Software v2.1.0 (Protein Simple).
# [4] = target: cynomolgus monkey beta-Klotho; assay: SPR binding affinity and kinetics to cynomolgus monkey beta-Klotho (Biacore 8K, anti-human Fc capture); parameters: species or system Cynomolgus monkey (Macaca fascicularis); details: 1:1 binding model, read-out: KD monkey KLB
# Method: as §1, §2
# [5] = Intact mass spectrometry (IMS); format: physicochemical; details: for intact mass Identity confirmed / intact mass Peak intensity post stress: 21 days
# Method: Protein integrity was analyzed by LC-MS. […] Reversed phase (RP) chromatography was done using a PLRP-S 1000A 5 μm, 50×2.1 mm (Agilent) with a guard column PLRP-S 300A 5 μm, 3×5 mm (Agilent) at 200 μL/min and 80° C. column temperature. Eluents were buffer A containing LC water and 0.1% formic acid as well as buffer B containing 90% acetonitrile, 10% LC water and 0.1% formic acid. 1 μg of protein was injected onto the column and eluted using linear gradient from 0 to 17 minutes with increasing acetonitrile concentration. Data was analyzed using MassHunter Bioconfirm B.06 (Agilent). Molecular masses were calculated based on the amino acid sequences of the proteins using GPMAW software version 10 (Lighthouse data).
# [6] = SPR, 1:1 binding model, read-out: KD human KLB
substance,measurement,setting,value
"Ab0429: IgG1 NNAS; 16H7 VL (N25S, D49S, D50A, D91E, N93E); 16H7 VH (M34V, I83T, D109E); HC SEQ ID NO: 42, LC SEQ ID NO: 49",SPR rel. active fraction,"human beta-Klotho [1]; pH 5, 40° C.",94%
same,SPR rel. active fraction,"human beta-Klotho [1]; pH 6, 40° C.",92%
same,SPR rel. active fraction,"human beta-Klotho [1]; pH 8, 40° C.",77%
same,Kd,human beta-Klotho [2]; [6],0.186 nM
same,Kd,human beta-Klotho [2]; read-out: Affinity SPR KD,0.19 nM
same,Charge homogeneity cIEF % main peak,[3],21.3%
same,Charge homogeneity cIEF Number of peaks,[3],9
same,Charge homogeneity cIEF pI,[3],7.5-8.5
same,cIEF % Main peak,"[3]; pH 5, 40° C., d 21",20%
same,cIEF Number of peaks,"[3]; pH 5, 40° C., d 21",9
same,cIEF % Main peak,"[3]; pH 5, d 0",21%
same,cIEF Number of peaks,"[3]; pH 5, d 0",8
same,cIEF % Main peak,"[3]; pH 6, 40° C., d 21",23%
same,cIEF Number of peaks,"[3]; pH 6, 40° C., d 21",8
same,cIEF % Main peak,"[3]; pH 6, d 0",21%
same,cIEF Number of peaks,"[3]; pH 6, d 0",9
same,cIEF % Main peak,"[3]; pH 8, 40° C., d 21",9.7%
same,cIEF Number of peaks,"[3]; pH 8, 40° C., d 21",10
same,cIEF % Main peak,"[3]; pH 8, d 0",21%
same,cIEF Number of peaks,"[3]; pH 8, d 0",8
same,Kd,[4],2.2 nM
same,"Identity, correct pairing, intact mass, Identity confirmed",[5],Yes
same,intact mass Identity confirmed,"[5]; pH 5, 40° C.",Yes
same,intact mass Peak intensity post stress,"[5]; pH 5, 40° C.",95%
same,intact mass Identity confirmed,"[5]; pH 6, 40° C.",Yes
same,intact mass Peak intensity post stress,"[5]; pH 6, 40° C.",83%
same,intact mass Identity confirmed,"[5]; pH 8, 40° C.",Yes
same,intact mass Peak intensity post stress,"[5]; pH 8, 40° C.",68%
"Ab0430: IgG1 NNAS; 16H7 VL (N25S, D49E, D50E, D91E, N93E); 16H7 VH (M34V, I83T, D109E); HC SEQ ID NO: 43, LC SEQ ID NO: 50",SPR rel. active fraction,"human beta-Klotho [1]; pH 5, 40° C.",94%
same,SPR rel. active fraction,"human beta-Klotho [1]; pH 6, 40° C.",92%
same,SPR rel. active fraction,"human beta-Klotho [1]; pH 8, 40° C.",75%
same,Kd,human beta-Klotho [2]; [6],0.286 nM
same,Kd,human beta-Klotho [2]; read-out: Affinity SPR KD,0.29 nM
same,Charge homogeneity cIEF % main peak,[3],21.7%
same,Charge homogeneity cIEF Number of peaks,[3],8
same,Charge homogeneity cIEF pI,[3],7.2-7.9
same,cIEF % Main peak,"[3]; pH 5, 40° C., d 21",21%
same,cIEF Number of peaks,"[3]; pH 5, 40° C., d 21",8
same,cIEF % Main peak,"[3]; pH 5, d 0",22%
same,cIEF Number of peaks,"[3]; pH 5, d 0",9
same,cIEF % Main peak,"[3]; pH 6, 40° C., d 21",20%
same,cIEF Number of peaks,"[3]; pH 6, 40° C., d 21",9
same,cIEF % Main peak,"[3]; pH 6, d 0",22%
same,cIEF Number of peaks,"[3]; pH 6, d 0",8
same,cIEF % Main peak,"[3]; pH 8, 40° C., d 21",4.4%
same,cIEF Number of peaks,"[3]; pH 8, 40° C., d 21",11
same,cIEF % Main peak,"[3]; pH 8, d 0",22%
same,cIEF Number of peaks,"[3]; pH 8, d 0",9
same,Kd,[4],2.96 nM
same,"Identity, correct pairing, intact mass, Identity confirmed",[5],Yes
same,intact mass Identity confirmed,"[5]; pH 5, 40° C.",Yes
same,intact mass Peak intensity post stress,"[5]; pH 5, 40° C.",80%
same,intact mass Identity confirmed,"[5]; pH 6, 40° C.",Yes
same,intact mass Peak intensity post stress,"[5]; pH 6, 40° C.",81%
same,intact mass Identity confirmed,"[5]; pH 8, 40° C.",Yes
same,intact mass Peak intensity post stress,"[5]; pH 8, 40° C.",54%
